The target in assay [1] is T1, soluble recombinant rat NgR, amino acids 27 through 450, with 6xHis tag (rat).
T1 construct: 2a; made in HEK293F cells; also called Rat NgR 6x His; rNgR
T1 chain: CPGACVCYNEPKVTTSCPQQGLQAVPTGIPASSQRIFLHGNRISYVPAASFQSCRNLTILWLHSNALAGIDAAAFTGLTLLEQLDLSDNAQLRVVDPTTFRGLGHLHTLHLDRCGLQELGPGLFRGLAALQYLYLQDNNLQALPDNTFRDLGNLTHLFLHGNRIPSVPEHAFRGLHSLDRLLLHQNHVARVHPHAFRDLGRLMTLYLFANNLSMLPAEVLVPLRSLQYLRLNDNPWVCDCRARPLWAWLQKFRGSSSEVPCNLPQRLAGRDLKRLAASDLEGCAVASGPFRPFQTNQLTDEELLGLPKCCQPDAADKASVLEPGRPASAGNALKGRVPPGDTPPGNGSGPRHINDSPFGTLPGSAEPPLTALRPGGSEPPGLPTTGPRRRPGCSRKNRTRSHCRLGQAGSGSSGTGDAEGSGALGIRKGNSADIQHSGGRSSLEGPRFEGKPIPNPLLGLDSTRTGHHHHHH
Put plainly: not stated.

In assay [2] the target is T1, soluble recombinant rat NgR, amino …. The assay can be described thus: ELISA, rat NgR coated 0.2 µg/well. The protocol: (§1) To determine the specificity of the monoclonal antibodies produced in Example 1, an ELISA using NgR-Fc (a fusion protein comprising amino acids Met 1 to Ser 447 of the human NgR and a human Fc fragment (R&D Systems)) and rat NgR (SEQ ID NO. 2a), was performed. Both ligands were immobilized on 96-well microtiter plates (Nunc Maxisorb; 0.2 μg/well). As a blocking reagent 2% bovine serum albumin (BSA) in Tris-HCL, pH 7.2 was used for 2 h at room temperature. The monoclonal antibodies were used in concentrations starting at 10,000 ng/ml. Bound antibodies were detected with a secondary anti-mouse antibody labeled with horseradish peroxidase (Sigma) and developed using 3,3′,5,5′-tetramethylbenzidine substrate (TMB, Pierce) under standard conditions. mAb50 and mAb51 specifically bound to human NgR. […] In similar experiments, mAb50 and mAb51 also specifically bound to a polypeptide consisting of amino acids of the rat NgR.

The target of assay [3] is T2, human recombinant NgR/Fc chimera (R&D Systems, Cat. Number 1208-NG) (human, UniProt Q9BZR6 27-447).
T2 construct: range 1-447; Bought from R&D Systems; also called hNgR-Fc; human NgR-Fc; not shown: human Fc fragment
T2 sequence (looked up): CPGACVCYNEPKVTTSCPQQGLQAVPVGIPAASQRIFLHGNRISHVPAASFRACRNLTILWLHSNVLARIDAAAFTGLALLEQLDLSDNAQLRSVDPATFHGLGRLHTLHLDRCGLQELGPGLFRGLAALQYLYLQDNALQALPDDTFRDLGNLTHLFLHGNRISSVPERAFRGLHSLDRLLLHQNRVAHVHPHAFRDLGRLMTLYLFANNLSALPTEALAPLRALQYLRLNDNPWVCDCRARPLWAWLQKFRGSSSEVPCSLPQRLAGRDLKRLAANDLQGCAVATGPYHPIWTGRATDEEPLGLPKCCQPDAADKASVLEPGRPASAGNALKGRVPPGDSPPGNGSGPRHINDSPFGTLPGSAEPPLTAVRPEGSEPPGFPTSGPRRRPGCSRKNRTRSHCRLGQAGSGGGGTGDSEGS
Put plainly: ELISA, human NgR-Fc coated 0.2 µg/well. For orientation: An ELISA detects its analyte on a solid surface through an enzyme-linked reagent.

The target of assay [4] is T2, human recombinant NgR/Fc chimera (R&D …). The assay can be described thus: Biacore, antibody captured, hNgR-Fc chimera as antigen. For orientation: Surface plasmon resonance follows binding to a sensor surface in real time, without labels.
Assay [5] addresses T1, soluble recombinant rat NgR, amino …. The assay can be described thus: ELISA, rat NgR coated 0.2 µg/well, anti-mouse-HRP, TMB. The protocol:
as §1

For assay [6], the target named is T2, human recombinant NgR/Fc chimera (R&D …). The assay can be described thus: ELISA, human NgR-Fc coated 0.2 µg/well, anti-mouse-HRP, TMB. The protocol:
as §1

The target is the same in assay [7]. Put plainly: competition ELISA, human NgR-Fc coated 0.2 µg/well, blocked ligand AP-Nogo66 at 0.15 nM, AttoPhos, RFU (30min-0min). The protocol:
To further characterize the monoclonal antibodies a competition assay similar to the binding assay of Example 2 was used to test the ability of the mAbs produced in Example 1 to inhibit AP-Nogo66 binding to human NgR-Fc. Human NgR-Fc (0.2 μg/well) was immobilized on 96-well microtiter plates (Nunc Maxisorb) in 50 mM Na-carbonate buffer pH 9 over night at 4° C. followed by a 2 h blocking step with 2% BSA in Tris-HCL, pH 7.2 at room temperature. The wells received a constant concentration of AP-Nogo66 (final concentration 0.15 nM in Tris-HCL, pH 7.2 with 0.1% BSA) and increasing concentrations of the mAbs. Plates were incubated for 90 min at room temperature. During each incubation step plates were washed with washing buffer (10 mM Tris-HCl, pH7.2 and 0.05% Tween20). Binding of AP-Nogo66 was detected with the AttoPhos substrate (Roche) and the fluorescence units were measured in the Polarstar (BMG) instrument.

B1: mAb51 (antibody, IgG2a, V domains shown)
VH: QVQLQQPGAELVKPGASVKLSCKASGYTFITYWMHWMKQRPGQGLEWIGEIDPSDSYTDYNQKFKGKATLTVDKSSSTAYMQLSSLTSEDSAVYYCARGSNVLYVLDYWGQGTSVTVSS
VL: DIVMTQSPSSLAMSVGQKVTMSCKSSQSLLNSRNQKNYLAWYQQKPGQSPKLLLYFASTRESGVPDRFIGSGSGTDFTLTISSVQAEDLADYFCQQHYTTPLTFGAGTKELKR
notes: also called Antibody Clone 51; ATCC No. PTA-8384
Turning to B1, the IC50 in assay [1] is approximately 0.03 nM. In assay [2], the EC50 is less than 0.02 µg/mL. For the same molecule, the EC50 in assay [3] is less than 0.02 µg/mL. In assay [4], the Kd came to 0.108 nM, the koff came out at 5.88e-05 s⁻¹ and the kon was 544000 M⁻¹ s⁻¹. The “EC50 (read off the curve)” value in assay [5] is approximately 0.03 µg/mL. Also, in assay [6], the “EC50 (read off the curve)” value was approximately 0.006 µg/mL. Besides, the “IC50 (read off the curve)” value in assay [7] is approximately 2 nM.

As usually defined, the IC50 is the concentration needed to halve the response being measured. The EC50 is the concentration that produces a half-maximal response. In general, Kd refers to the equilibrium constant for the complex coming apart. In general, koff refers to the rate constant with which the complex falls apart. One may read the kon as a measure of how fast the partners come together. One may read the EC50 (read off the curve) as the concentration needed to bring the measured effect to its halfway point.

(Values after patent US20160145334A1 (AbbVie / Abbott, published 2016).)
